In PMC6441497:

Tested on: Pho4 (yeast)
Experiment: EMSA
Details: EMSA: 10 mM Tris-HCl pH 7.6, 1 mM MgCl2, 60 mM KCl, 3 mg/ml BSA, 1% glycerol, 1% Ficoll, 1 mM DTT, 1 ug poly(dI-dC), 100 ng calf thymus DNA, 20 ul, 10 min …

601 free DNA with Pho4 site
Kd: 240 nM
